Assay results published in patent publication US20170173105A1, “AUTOASSEMBLING PEPTIDES FOR THE TREATMENT OF PULMONARY LEAKAGE” (3-D MATRIX, LTD., priority 2014, published 2017).

Columns and labels:
Type in all cases: physicochemical
[1] = pH and appearance of 2.5% peptide solutions after adding 0.1 N NaOH
Method: To adjust the pH level of the peptide solutions by way of example, 0.1 N NaOH was added to 2 mL of 2.5% peptide solutions and their pH and appearance were measured.

[2] = Rheological properties of pH adjusted peptide solutions and hydrogels (stress/frequency sweep); conditions: at pH 3.4 (IEIK13 adjusted to 3.7); KLD12 1%, IEIK13 1%, PuraMatrix 1% and 2.5%
Method: Based on the visual observation of the effect of pH level on the properties of the peptide solutions, the effect on the rheological properties of the peptide solutions after adjusting their pH level to 3.4 (PuraMatrix® and KLD12) or 3.7 (IEIK13) was evaluated. If the pH levels of peptide solutions are higher than 3.5 (PuraMatrix® and KLD12) or 3.7 (IEIK13), the peptide solution began phase separation becoming cloudy. The rheological properties of PuraMatrix®, KLD12 and IEIK13 solutions were higher at pH 3.4. The results are shown in FIG. 2 for KLD12 1%, FIG. 3 for IEIK13 1%, and FIGS. 4-5 for PuraMatrix® 1% and 2.5%, respectively. Stress sweep tests were performed at 10 rad/s. Frequency sweep tests were performed at 1 Pa.
Based on the results of the effect on the rheological properties of the peptide solutions after adjusting their pH level to 3.4 (PuraMatrix® and KLD12) or 3.7 (IEIK13), the effect on the rheological properties of the peptide solutions at various pH levels was evaluated. […] The rheological properties of peptides were evaluated at various concentrations using a rheometer (DHR-1, TA Instruments) with 20 mm plates. The results are shown in FIG. 6A for PuraMatrix® 2.5% solution and FIG. 6B for IEIK13 1.5% solution, respectively. Frequency sweep tests were performed from 1 rad/sec to 10 rad/sec at 1 Pa and the storage modulus at 1 rad/sec was selected for data.
Based on the results of the effect on the rheological properties of the peptide solutions after adjusting their pH level, the effect on the rheological properties of the peptide hydrogels at various pH after DMEM treatment was evaluated and compared to the effect on the rheological properties of the peptide solutions at various pH before DMEM treatment. […] The results are shown in FIGS. 7A-7B for PuraMatrix® and FIGS. 8A-8B for IEIK (SEQ ID NO: 5), respectively. Frequency sweep tests were performed from 1 rad/sec to 10 rad/sec at 1 Pa and the storage modulus at 1 rad/sec was selected for data.

[3] = Appearance of 1.5% peptide solutions with various salts at room temperature; conditions: for Appearance: KLD12 solution, room temperature
Method: The effect of salt ionic strength level on the properties of peptide solutions was evaluated to identify optimized salt ionic strength levels for the peptides as described herein. Increasing the salt ionic strength level of PuraMatrix® and other peptides may generally improve its function and mechanical strength for various clinical applications. To adjust the salt ionic strength of the peptide solutions by way of example, various salt buffer solutions including NaCl, KCl, MgCl2, CaCl2 and DPBS (10×) were added to 2 mL of 1.5% peptide solutions.

[4] = 0.1 N NaOH 0 μL/mL added in 2.5% solution, conc. 2.5%
[5] = 0.1 N NaOH 50 μL/mL added in 2.5% solution, conc. 2.38%
[6] = 0.1 N NaOH 100 μL/mL added in 2.5% solution, conc. 2.27%
[7] = 0.1 N NaOH 300 μL/mL added in 2.5% solution, conc. 1.92%
[8] = pH increase up to approximately 3.5 or less with 0.1 N NaOH, 2.5% solutions

Lys-Leu-Asp-Leu-Lys-Leu-Asp-Leu-Lys-Leu-Asp-Leu (Ac-KLDLKLDLKLDL-NH2) [KLD12]
Appearance [1, 4]: Clear, thick gel | Peptide solution pH [1, 4]: 2.1 | Appearance [1, 5]: Clear, thick gel | Peptide solution pH [1, 5]: 2.4 | Appearance [1, 6]: Clear, thick gel | Peptide solution pH [1, 6]: 2.6 | Peptide solution pH ([1]; 0.1 N NaOH 150 μL/mL added in 2.5% solution, conc. 2.17%): 2.9 | Peptide solution pH ([1]; 0.1 N NaOH 200 μL/mL added in 2.5% solution, conc. 2.08%): 3.3 | Peptide solution pH ([1]; 0.1 N NaOH 225 μL/mL added in 2.5% solution, conc. 2.04%): 3.6 | Peptide solution pH ([1]; 0.1 N NaOH 250 μL/mL added in 2.5% solution, conc. 2.0%): 4.0 | Appearance [1, 7]: Cloudy, brittle gel | Peptide solution pH [1, 7]: 4.7 | Peptide solution pH ([1]; 0.1 N NaOH 350 μL/mL added in 2.5% solution, conc. 1.85%): 5.2 | Peptide solution pH ([1]; last line per peptide, NaOH volume and conc. not given): 7.0 | apparent stiffness on pH increase [1, 8]: increased | color of solution on pH increase [1, 8]: did not change the clear color | rheological properties of solutions after pH adjustment [2]: higher | Appearance ([3]; CaCl2 0 M, ionic strength 0 M, conc. 1.5%): Clear, thick gel | Appearance ([3]; CaCl2 0.05 M, ionic strength 0.15 M, conc. 1.48%): Clear, thick, stiffer gel | Appearance ([3]; CaCl2 0.067 M, ionic strength 0.2 M, conc. 1.47%): Clear, thick, stiffer gel | Appearance ([3]; CaCl2 0.083 M, ionic strength 0.25 M, conc. 1.46%): Clear, thick, stiffer gel | Appearance ([3]; CaCl2 0.1 M, ionic strength 0.3 M, conc. 1.45%): Clear, thick, stiffer gel | Appearance ([3]; CaCl2 0.117 M, ionic strength 0.35 M, conc. 1.44%): Clear, thick, stiffer gel | Appearance ([3]; CaCl2 0.133 M, ionic strength 0.4 M, conc. 1.43%): Slightly cloudy, thick, stiffer gel | Appearance ([3]; CaCl2 0.15 M, ionic strength 0.45 M, conc. 1.43%): Slightly cloudy, brittle gel | Appearance ([3]; CaCl2 0.167 M, ionic strength 0.5 M, conc. 1.42%): Cloudy, phase-separated | Appearance ([3]; KCl 0 M, ionic strength 0 M, conc. 1.5%): Clear, thick gel | Appearance ([3]; KCl 0.05 M, ionic strength 0.5 M, conc. 1.48%): Clear, thick, stiffer gel | Appearance ([3]; KCl 0.1 M, ionic strength 0.1 M, conc. 1.45%): Clear, thick, stiffer gel | Appearance ([3]; KCl 0.15 M, ionic strength 0.15 M, conc. 1.43%): Clear, thick, stiffer gel | Appearance ([3]; KCl 0.2 M, ionic strength 0.2 M, conc. 1.4%): Clear, thick, stiffer gel | Appearance ([3]; KCl 0.25 M, ionic strength 0.25 M, conc. 1.38%): Clear, thick, stiffer gel | Appearance ([3]; KCl 0.3 M, ionic strength 0.3 M, conc. 1.35%): Slightly cloudy, thick, stiffer gel | Appearance ([3]; KCl 0.35 M, ionic strength 0.35 M, conc. 1.32%): Slightly cloudy, brittle gel | Appearance ([3]; KCl 0.4 M, ionic strength 0.4 M, conc. 1.3%): Cloudy, phase-separated | Appearance ([3]; MgCl2 0 M, ionic strength 0 M, conc. 1.5%): Clear, thick gel | Appearance ([3]; MgCl2 0.05 M, ionic strength 0.15 M, conc. 1.48%): Clear, thick, stiffer gel | Appearance ([3]; MgCl2 0.067 M, ionic strength 0.2 M, conc. 1.47%): Clear, thick, stiffer gel | Appearance ([3]; MgCl2 0.083 M, ionic strength 0.25 M, conc. 1.46%): Clear, thick, stiffer gel | Appearance ([3]; MgCl2 0.1 M, ionic strength 0.3 M, conc. 1.45%): Clear, thick, stiffer gel | Appearance ([3]; MgCl2 0.117 M, ionic strength 0.35 M, conc. 1.44%): Clear, thick, stiffer gel | Appearance ([3]; MgCl2 0.133 M, ionic strength 0.4 M, conc. 1.43%): Slightly cloudy, thick, stiffer gel | Appearance ([3]; MgCl2 0.15 M, ionic strength 0.45 M, conc. 1.43%): Slightly cloudy, brittle gel | Appearance ([3]; MgCl2 0.167 M, ionic strength 0.5 M, conc. 1.42%): Cloudy, phase-separated | Appearance ([3]; NaCl 0 M, ionic strength 0 M, conc. 1.5%): Clear, thick gel | Appearance ([3]; NaCl 0.05 M, ionic strength 0.5 M, conc. 1.48%): Clear, thick, stiffer gel | Appearance ([3]; NaCl 0.1 M, ionic strength 0.1 M, conc. 1.45%): Clear, thick, stiffer gel | Appearance ([3]; NaCl 0.15 M, ionic strength 0.15 M, conc. 1.43%): Clear, thick, stiffer gel | Appearance ([3]; NaCl 0.2 M, ionic strength 0.2 M, conc. 1.4%): Clear, thick, stiffer gel | Appearance ([3]; NaCl 0.25 M, ionic strength 0.25 M, conc. 1.38%): Clear, thick, stiffer gel | Appearance ([3]; NaCl 0.3 M, ionic strength 0.3 M, conc. 1.35%): Slightly cloudy, thick, stiffer gel | Appearance ([3]; NaCl 0.35 M, ionic strength 0.35 M, conc. 1.32%): Slightly cloudy, brittle gel | Appearance ([3]; NaCl 0.4 M, ionic strength 0.4 M, conc. 1.3%): Cloudy, phase-separated | apparent stiffness on salt ionic strength increase ([3]; up to the ionic strength at which solutions stay clear): increased
